Holding throughout (details): partners not purified
For assay [1], the target named is T1, Grb2, endogenous in mouse brain (mouse (endogenous in mouse brain), UniProt Q60631 1-217).
T1 construct: Grb2, endogenous in mouse brain (APP/PS1 and WT mice), precipitated with an anti-Grb2 antibody; source: endogenous, protein extracted from paraffin-embedded brain sections of APP/PS1 (AD) and WT mice
Briefly: co-IP; Grb2 pull down from protein extracted from paraffinized brain sections of AD (APP/PS1) and WT mice, probed with anti-NOX4 antibody.

Assay [2] concerns the target T2, Growth factor receptor bound protein 2 (Grb2), endogenous in SHSY-5Y cells (human (endogenous in SHSY-5Y), UniProt P62993 1-217).
T2 construct: Grb2, endogenous in human neuroblastoma SHSY-5Y cells, precipitated with an anti-Grb2 antibody; source: endogenous, SHSY-5Y cell lysate
Briefly: co-IP; IP for Grb2 from cell lysate, blot with anti-NOX4 (reverse: IP for NOX4, blot with anti-Grb2); cells under control (GFP, DMSO, DsRed), AD-inducing (AICD, Aβ, DsRed), reversal (AICD, Aβ, Grb2-DsRed) and Grb2 knock-down (U6-Grb2) conditions.

A further assay addresses T3, Grb2-DsRed construct (UniProt P62993 1-217).
T3 construct: Grb2 cloned into a DsRed-C1 vector; In the transfected cells endogenous Grb2 is present too, and the anti-Grb2 antibody would precipitate both; A C1 vector usually places the fluorescent protein at the N-terminus; source: SHSY-5Y, transiently transfected, in lysate
The description is as above.

Experimental findings from paper PMC5451165, “Cellular levels of Grb2 and cytoskeleton stability are correlated in a neurodegenerative scenario” (Disease Models & Mechanisms, 2017) are described below.

T1 sequence (Q60631 whole entry): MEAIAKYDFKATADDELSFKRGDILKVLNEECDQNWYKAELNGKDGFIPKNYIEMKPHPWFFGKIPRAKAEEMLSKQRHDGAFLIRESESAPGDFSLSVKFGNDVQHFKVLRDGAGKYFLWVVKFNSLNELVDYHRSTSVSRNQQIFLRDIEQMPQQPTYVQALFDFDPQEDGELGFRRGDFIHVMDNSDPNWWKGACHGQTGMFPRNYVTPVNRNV
T2 sequence (P62993 whole entry): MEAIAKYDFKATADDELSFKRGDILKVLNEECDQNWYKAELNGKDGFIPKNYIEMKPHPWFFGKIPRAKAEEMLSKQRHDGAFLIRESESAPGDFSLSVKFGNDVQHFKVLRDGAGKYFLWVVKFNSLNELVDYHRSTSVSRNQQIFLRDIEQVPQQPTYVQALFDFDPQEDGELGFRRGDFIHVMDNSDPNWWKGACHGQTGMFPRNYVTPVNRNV
T3 sequence (P62993 whole entry): as above

B1: NOX4, endogenous in mouse brain (natural protein, mouse (endogenous in mouse brain), UniProt Q9JHI8 1-578, looked up)
chain: MAVSWRSWLANEGVKHLCLLIWLSLNVLLFWKTFLLYNQGPEYYYIHQMLGLGLCLSRASASVLNLNCSLILLPMCRTVLAYLRGSQKVPSRRTRRLLDKSKTLHITCGVTICIFSGVHVAAHLVNALNFSVNYSEDFLELNAARYQNEDPRKLLFTTIPGLTGVCMVVVLFLMVTASTYAIRVSNYDIFWYTHNLFFVFYMLLLLHVSGGLLKYQTNVDTHPPGCISLNQTSSQNMSIPDYVSEHFHGSLPRGFSKLEDRYQKTLVKICLEEPKFQAHFPQTWIWISGPLCLYCAERLYRCIRSNKPVTIISVINHPSDVMELRMIKENFKARPGQYIILHCPSVSALENHPFTLTMCPTETKATFGVHFKVVGDWTERFRDLLLPPSSQDSEILPFIHSRNYPKLYIDGPFGSPFEESLNYEVSLCVAGGIGVTPFASILNTLLDDWKPYKLRRLYFIWVCRDIQSFQWFADLLCVLHNKFWQENRPDFVNIQLYLSQTDGIQKIIGEKYHTLNSRLFIGRPRWKLLFDEIAKCNRGKTVGVFCCGPSSISKTLHSLSNRNNSYGTKFEYNKESFS
notes: NOX4, endogenous in mouse brain (APP/PS1 and WT mice), detected with an anti-NOX4 antibody; source: endogenous, protein extracted from paraffin-embedded brain sections of APP/PS1 (AD) and WT mice
Take B1: the “fold change of the co-precipitated interaction, AD mouse brain relative to wild type” value in assay [1] stood at 1.49 fold.

B2: NOX4, endogenous in SHSY-5Y cells (natural protein, human (endogenous in SHSY-5Y), UniProt Q9NPH5 1-578, looked up)
chain: MAVSWRSWLANEGVKHLCLFIWLSMNVLLFWKTFLLYNQGPEYHYLHQMLGLGLCLSRASASVLNLNCSLILLPMCRTLLAYLRGSQKVPSRRTRRLLDKSRTFHITCGVTICIFSGVHVAAHLVNALNFSVNYSEDFVELNAARYRDEDPRKLLFTTVPGLTGVCMVVVLFLMITASTYAIRVSNYDIFWYTHNLFFVFYMLLTLHVSGGLLKYQTNLDTHPPGCISLNRTSSQNISLPEYFSEHFHEPFPEGFSKPAEFTQHKFVKICMEEPRFQANFPQTWLWISGPLCLYCAERLYRYIRSNKPVTIISVMSHPSDVMEIRMVKENFKARPGQYITLHCPSVSALENHPFTLTMCPTETKATFGVHLKIVGDWTERFRDLLLPPSSQDSEILPFIQSRNYPKLYIDGPFGSPFEESLNYEVSLCVAGGIGVTPFASILNTLLDDWKPYKLRRLYFIWVCRDIQSFRWFADLLCMLHNKFWQENRPDYVNIQLYLSQTDGIQKIIGEKYHALNSRLFIGRPRWKLLFDEIAKYNRGKTVGVFCCGPNSLSKTLHKLSNQNNSYGTRFEYNKESFS
notes: NOX4, endogenous in human neuroblastoma SHSY-5Y cells, detected with an anti-NOX4 antibody; source: endogenous, SHSY-5Y cell lysate
Turning to B2, the “fold change of the co-precipitated interaction, AD conditions (AICD + Aβ) relative to control” value in assay [2] stood at 1.42 fold. The “fold change of the co-precipitated interaction, reversal condition (AICD + Aβ + Grb2-DsRed) relative to control” value with Grb2-DsRed construct came out at 2.18 fold.
